These results are taken from patent publication US20050214212A1.

For assay [1], the target named is glutathione-S-transferase fusion protein containing domains v3-v10 of human CD44 (human) (UniProt P16070). Description: ratio of affinities from SPR on GST/CD44v3-v10.
Assay [2] has the same target. The assay is described as follows: SPR (BIAcore 2000), GST/CD44v3-v10 immobilised on CM5. For orientation: In SPR one partner is held on a chip, and binding of the other changes the refractive index at the surface.
Assay [3] has as its target CD44v6 (human CD44 variant isoform containing exon v6) on human tumour cells (human) (UniProt P16070). The assay is described as follows: immunoreactivity assay, 186Re-MAG3-labelled MAb on fixed UM-SCC-11B cells.
In assay [4] the target is glutathione-S-transferase fusion protein containing domains v3-v10 of human CD44 (human) (UniProt P16070). The assay is described as follows: SPR (BIAcore 2000), GST/CD44v3-v10 immobilised on CM5, MAb 8-67 nM injected.
For assay [5], the target named is CD44v6 (human CD44 variant isoform containing exon v6) on human tumour cells (human) (UniProt P16070). The assay is described as follows: immunoreactivity assay, 131I-labelled MAb on glutaraldehyde-fixed UM-SCC-11B cells, experiment 2.
Assay [6] has the same target. Description: immunoreactivity assay, 131I-labelled MAb on glutaraldehyde-fixed UM-SCC-11B cells, experiment 3.
Assay [7] shares this target. The assay is described as follows: immunoreactivity assay of clinical 99mTc-/186Re-MAG3-labelled BIWA 4 batches on fixed UM-SCC-11B cells.
For assay [8] the target is unchanged. Description: immunoreactivity assay on fixed UM-SCC-11B cells, linear extrapolation to infinite antigen excess, experiment 2.
Assay [9] has the same target. Description: immunoreactivity assay on fixed UM-SCC-11B cells, linear extrapolation to infinite antigen excess, experiment 3.
Assay [10] shares this target. The assay is described as follows: immunoreactivity assay, 125I-labelled MAb on glutaraldehyde-fixed UM-SCC-11B cells, experiment 3.

Sequence of glutathione-S-transferase fusion protein containing domains v3-v10 of human CD44 (human) (P16070 267-604): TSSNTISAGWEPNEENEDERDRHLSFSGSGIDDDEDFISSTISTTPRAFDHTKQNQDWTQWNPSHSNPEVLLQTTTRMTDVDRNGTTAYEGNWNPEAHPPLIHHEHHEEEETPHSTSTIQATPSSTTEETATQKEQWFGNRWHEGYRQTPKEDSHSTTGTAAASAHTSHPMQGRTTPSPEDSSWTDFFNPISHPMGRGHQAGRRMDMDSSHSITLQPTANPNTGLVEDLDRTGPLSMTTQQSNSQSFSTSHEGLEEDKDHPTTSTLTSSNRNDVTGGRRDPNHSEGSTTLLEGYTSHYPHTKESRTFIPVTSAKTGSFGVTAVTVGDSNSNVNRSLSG

B1: hMAb BIWA 4 (bivatuzumab), humanised CDR-grafted antibody without framework modifications (antibody, human IgG1, kappa, V domains shown)
VH: EVQLVESGGGLVKPGGSLRLSCAASGFTFSSYDMSWVRQAPGKGLEWVSTISSGGSYTYYLDSIKGRFTISRDNAKNSLYLQMNSLRAEDTAVYYCARQGLDYWGRGTLVTVSS
VL: EIVLTQSPATLSLSPGERATLSCSASSSINYIYWYQQKPGQAPRLLIYLTSNLASGVPARFSGSGSGTDFTLTISSLEPEDFAVYYCLQWSSNPLTFGGGTKVEIKR
Broadly, the Kd is a measure of binding affinity in units of concentration. What is called koff is the first-order rate constant of dissociation. Read a high koff as a short-lived complex. As a reminder, the kon is the second-order rate constant of association. Higher therefore signals faster complex formation. As to B1, in assay [1], the fold lower affinity than cMAb BIWA 2 was 14 fold and the fold lower affinity than hMAb BIWA 8 was determined as 4 fold. The molecule also displayed a Kd relative to murine BIWA 1 in [2] of 10.5. Moreover, the immunoreactive fraction in assay [3] was greater than 75%. In assay [4], this molecule had a Kd of 3.4 nM, a koff of 0.00022 s⁻¹ and an association rate constant (kon) of 65000 M⁻¹ s⁻¹. Further, the Binding to 5 × 10^6 cells (%) in assay [5] was 77.4%. Further, the Binding to 5 × 10^6 cells (%) in [6] turned out to be 77.3%. In addition, the immunoreactive fraction in assay [7] is greater than 80%. Further, the Binding Extrapolated (%) (immunoreactive fraction) in assay [8] is 82.3%. The Binding Extrapolated (%) (immunoreactive fraction) in assay [9] was 74.5%.

B2: hMAb BIWA 8, humanised CDR-grafted antibody with framework modifications (antibody, human IgG1, kappa, V domains shown)
VH: EVQLVESGGGLVKPGGSLRLSCAASGFTFSSYDMSWVRQAPGKGLEWVSTISSGGSYTYYLDSIKGRFTISRDNAKNSLYLQMNSLRAEDTAVYYCARQGLDYWGRGTLVTVSS
VL: EIVLTQSPATLSLSPGERATLSCSASSSINYIYWLQQKPGQAPRILIYLTSNLASGVPARFSGSGSGTDFTLTISSLEPEDFAVYYCLQWSSNPLTFGGGTKVEIKR
Molecule B2 gave a Kd relative to murine BIWA 1 in [2] of 2.6. Also, the immunoreactive fraction in [3] was greater than 75%. Further, in assay [4], the Kd is 0.84 nM, the koff came to 6.3e-05 s⁻¹ and the kon came out at 75000 M⁻¹ s⁻¹. The same molecule registered a Binding to 5 × 10^6 cells (%) in assay [10] of 91.8%. Moreover, in [9], the Binding Extrapolated (%) (immunoreactive fraction) was 92.1%.
